The values below are quoted from earlier work in patent publication US20240247069A1, “FGFR3 BINDING MOLECULES AND METHODS OF USE THEREOF” (Regeneron Pharmaceuticals, Inc., priority 2023, published 2024).

In the series the test system is FGFR3.
Where [1] appears, read: Table T-3, exemplary FGFR3 D3 binding sequences from cited PCT publications.
Setting [2] is: literature antibodies, sequences from cited PCT publications.

Changes are numbered by the printed parent chain. Where two headings read alike, the source gives them in different places.

B1: PRQ-029: anti-FGFR3 IIIc antibody of WO 2006/048877 A2; VH SEQ ID NO:40, VL SEQ ID NO:49 (antibody, V domains shown)
VH: QVQLVQSGAEVKKPGASVKVSCKASGYTFTSYYMHWVRQAPGQGLEWMGWINPNSGGTNYAQKFQGRVTMTRDTSISTAYMELSSLRSEDTAVYYCARTWQYSYFYYLDGGYYFDIWGQGTLVTVSS
VL: DIVLTQSPATLSLSPGERATLSCRASQSVSSSYLAWYQQKPGQAPRLLIYGASSRATGVPARFSGSGSGTDFTLTISSLEPEDFATYYCQQTNNAPVTFGQGTKVEIKRT
For B1, the Activity entry is given as “Antagonistic” under setting [1] and “Antagonistic” under setting [2].

B2: 15D8: anti-FGFR3 domain 3 antibody of WO 2010/002862 A2; VH SEQ ID NO:51, VL SEQ ID NO:52 (antibody, V domains shown)
VH: EIQLQQSGPELVKPGASVKVSCKASGYAFTSYNMYWVKQSHGKSLEWIGYIDPYNGGTSYNQKFKGKATLTVDKSSSTAYMHLNSLTSEDSAVYYCAREGGNYEAWFAYWGQGTLVTVSA
VL: QIVLTQSPALMSASPGEKVTMTCSASSSVSYMYWYQQKPRSSPKPWIYLTSYLASGVPARFSGSGSGTSYSLTISSMEAEDAATYYCQQWSSYPLTFGAGTKLELK
Turning to B2, the Activity entry under setting [1] is listed as “Antagonistic” and the Activity result under setting [2] was “Antagonistic”.

B3: 27H2: anti-FGFR3 domain 3 antibody of WO 2010/002862 A2; VH SEQ ID NO:53, VL SEQ ID NO:54 (antibody, V domains shown)
VH: B2 VH with S59R, L70M
VL: B2 VL with Y52N, Y93N
Regarding B3, the Activity entry is, setting by setting: under setting [1], “Antagonistic”; under setting [2], “Antagonistic”.

B4: 2G4: anti-FGFR3 domain 3 antibody of WO 2010/002862 A2; VH SEQ ID NO:55, VL SEQ ID NO:54 (antibody, V domains shown)
VH: B2 VH with S59R, Y60D
VL: B2 VL with Y52N, Y93N
Regarding B4, the Activity result is, setting by setting: under setting [1], “Antagonistic”; under setting [2], “Antagonistic”.

B5: MS-PRQ-12: anti-FGFR3 Ig-like domain 2 antibody of WO 2002/102972 A2; VH SEQ ID NO:26, VL SEQ ID NO:27 (antibody, V domains shown)
VH: QVQLKESGPALVKPQTLTLTCTFSGFSLSTSGVGVGWIRQPPGKALEWLALIDWDDDKYYSTSLKTRLTISKDTSKNQVVLTMTNMDPVDTATYYCARYHSWYEMGYYGSTVGYMFDYWGQGTLVTVSS
VL: DIELTQPPSVSVAPGQTARISCSGDALGDKYASWYQQKPGQAPVLVIYDDSDRPSGIPERFSGSNSGNTATLTISGTQAEDEADYYCQSYDFDFAVFGGGTKLTVLGQ
In the case of B5, the Activity entry under setting [2] is “Antagonistic”.

B6: PRQ-054: anti-FGFR3 IIIc antibody of WO 2006/048877 A2; VH SEQ ID NO:42, VL SEQ ID NO:50 (antibody, V domains shown)
VH: QVQLVQSGAEVKKPGASVKVSCKASGYTFTSYYMHWVRQAPGQGLEWMGWINPNSGGTNYAQKFQGRVTMTRDTSISTAYMELSSLRSEDTAVYYCARNMAYTNYQYVNMPHFDYWGQGTLVTVSS
VL: B5 VL with F92Y, D93F, F94K, A95L
With B6, the Activity entry under setting [1] is reported as “Antagonistic” and the Activity result under setting [2] is recorded as “Antagonistic”.

B7: PRQ-055: anti-FGFR3 IIIc antibody of WO 2006/048877 A2; VH SEQ ID NO:44, VL SEQ ID NO:45 (antibody, V domains shown)
VH: QVQLVQSGAEVKKPGASVKVSCKASGYTFTSYYMHWVRQAPGQGLEWMGWINPNSGGTNYAQKFQGRVTMTRDTSISTAYMELSSLRSEDTAVYYCARSMNSTMYWYLRRVLFDHWGQGTLVTVSS
VL: DIALTQPASVSGSPGQSITISCTGTSSDVGGYNYVSWYQQHPGKAPKLMIYDVSNRPSGVSNRFSGSKSGNTASLTISGLQAEDEADYYCQSYDMYNYIVFGGGTKLTVLGQ
B7: the Activity entry is recorded as “Antagonistic” under setting [1] and “Antagonistic” under setting [2].
